# Changes are numbered by the printed parent chain. In names and notes the source's numbering stands.
# B1: N302E: mutated TriA variant of SEQ ID NO: 2 (protein)
# chain: MQTLSIQHGTLVTMDQYRRVLGDSWVHVQDGRIVALGVHAESVPPPADRVIDARGKVVLPGFINAHTHVNQILLRGGPSHGRQLYDWLFNVLYPGQKAMRPEDVAVAVRLYCAEAVRSGITTINDNADSAIYPGNIEAAMAVYGEVGVRVVYARMFFDRMDGRIQGYVDALKARSPQVELCSIMEETAVAKDRITALSDQYHGTAGGRISVWPAPAITPAVTVEGMRWAQAFARDRAVMWTLHMAESDHDERLHWMSPAEYMECYGLLDERLQVAHCVYFDRKDVRLLHRHNVKVASQVVSEAYLGSGVAPVPEMVERGMAVGIGTDDGNCNDSVNMIGDMKFMAHIHRAVHRDADVLTPEKILEMATIDGARSLGMDHEIGSIETGKRADLILLDLRHPQTTPHHHLAATIVFQAYGNEVDTVLIDGNVVMENRRLSFLPPERELAFLEEAQSRATAILQRANMVANPAWRSL
# modifications: Pseudomonas
# B2: Q71NL92A: mutated TriA variant of SEQ ID NO: 2 (protein)
# chain: B1 chain with Q71N, L92A, E302N
# modifications: Pseudomonas
# B3: F157S: mutated TriA variant of SEQ ID NO: 2 (protein)
# chain: B1 chain with F157S, E302N
# modifications: Pseudomonas
# B4: Q71S: mutated TriA variant of SEQ ID NO: 2 (protein)
# chain: B1 chain with Q71S, E302N
# modifications: Pseudomonas
# B5: Q71V: mutated TriA variant of SEQ ID NO: 2 (protein)
# chain: B1 chain with Q71V, E302N
# modifications: Pseudomonas
# B6: Q71T: mutated TriA variant of SEQ ID NO: 2 (protein)
# chain: B1 chain with Q71T, E302N
# modifications: Pseudomonas
# B7: Q71NL92AY93F: mutated TriA variant of SEQ ID NO: 2 (protein)
# chain: B1 chain with Q71N, L92A, Y93F, E302N
# modifications: Pseudomonas
# B8: Y304K: mutated TriA variant of SEQ ID NO: 2 (protein)
# chain: B1 chain with E302N, Y304K
# modifications: Pseudomonas
# B9: Q71NL88AL92A: mutated TriA variant of SEQ ID NO: 2 (protein)
# chain: B1 chain with Q71N, L88A, L92A, E302N
# modifications: Pseudomonas
# B10: Q71NL92AD128G: mutated TriA variant of SEQ ID NO: 2 (protein)
# chain: B1 chain with Q71N, L92A, D128G, E302N
# modifications: Pseudomonas
# B11: N70S: mutated TriA variant of SEQ ID NO: 2 (protein)
# chain: B1 chain with N70S, E302N
# modifications: Pseudomonas
# B12: Q71NL92AD128A: mutated TriA variant of SEQ ID NO: 2 (protein)
# chain: B1 chain with Q71N, L92A, D128A, E302N
# modifications: Pseudomonas
# B13: Q71NL92AY93L: mutated TriA variant of SEQ ID NO: 2 (protein)
# chain: B1 chain with Q71N, L92A, Y93L, E302N
# modifications: Pseudomonas
# B14: ΔA170_S182: TriA deletion variant of SEQ ID NO: 2 (protein)
# chain: MQTLSIQHGTLVTMDQYRRVLGDSWVHVQDGRIVALGVHAESVPPPADRVIDARGKVVLPGFINAHTHVNQILLRGGPSHGRQLYDWLFNVLYPGQKAMRPEDVAVAVRLYCAEAVRSGITTINDNADSAIYPGNIEAAMAVYGEVGVRVVYARMFFDRMDGRIQGYVDIMEETAVAKDRITALSDQYHGTAGGRISVWPAPAITPAVTVEGMRWAQAFARDRAVMWTLHMAESDHDERLHWMSPAEYMECYGLLDERLQVAHCVYFDRKDVRLLHRHNVKVASQVVSNAYLGSGVAPVPEMVERGMAVGIGTDDGNCNDSVNMIGDMKFMAHIHRAVHRDADVLTPEKILEMATIDGARSLGMDHEIGSIETGKRADLILLDLRHPQTTPHHHLAATIVFQAYGNEVDTVLIDGNVVMENRRLSFLPPERELAFLEEAQSRATAILQRANMVANPAWRSL
# modifications: Pseudomonas
# B15: ΔR174_L180: TriA deletion variant of SEQ ID NO: 2 (protein)
# chain: MQTLSIQHGTLVTMDQYRRVLGDSWVHVQDGRIVALGVHAESVPPPADRVIDARGKVVLPGFINAHTHVNQILLRGGPSHGRQLYDWLFNVLYPGQKAMRPEDVAVAVRLYCAEAVRSGITTINDNADSAIYPGNIEAAMAVYGEVGVRVVYARMFFDRMDGRIQGYVDALKACSIMEETAVAKDRITALSDQYHGTAGGRISVWPAPAITPAVTVEGMRWAQAFARDRAVMWTLHMAESDHDERLHWMSPAEYMECYGLLDERLQVAHCVYFDRKDVRLLHRHNVKVASQVVSNAYLGSGVAPVPEMVERGMAVGIGTDDGNCNDSVNMIGDMKFMAHIHRAVHRDADVLTPEKILEMATIDGARSLGMDHEIGSIETGKRADLILLDLRHPQTTPHHHLAATIVFQAYGNEVDTVLIDGNVVMENRRLSFLPPERELAFLEEAQSRATAILQRANMVANPAWRSL
# modifications: Pseudomonas
# B16: ΔS129_A130: TriA deletion variant of SEQ ID NO: 2 (protein)
# chain: MQTLSIQHGTLVTMDQYRRVLGDSWVHVQDGRIVALGVHAESVPPPADRVIDARGKVVLPGFINAHTHVNQILLRGGPSHGRQLYDWLFNVLYPGQKAMRPEDVAVAVRLYCAEAVRSGITTINDNADIYPGNIEAAMAVYGEVGVRVVYARMFFDRMDGRIQGYVDALKARSPQVELCSIMEETAVAKDRITALSDQYHGTAGGRISVWPAPAITPAVTVEGMRWAQAFARDRAVMWTLHMAESDHDERLHWMSPAEYMECYGLLDERLQVAHCVYFDRKDVRLLHRHNVKVASQVVSNAYLGSGVAPVPEMVERGMAVGIGTDDGNCNDSVNMIGDMKFMAHIHRAVHRDADVLTPEKILEMATIDGARSLGMDHEIGSIETGKRADLILLDLRHPQTTPHHHLAATIVFQAYGNEVDTVLIDGNVVMENRRLSFLPPERELAFLEEAQSRATAILQRANMVANPAWRSL
# modifications: Pseudomonas
# B17: ΔA130_I131: TriA deletion variant of SEQ ID NO: 2 (protein)
# chain: B16 chain with I129S
# modifications: Pseudomonas
# Format: biochemical
# Conditions: pH 7.2
# Method: EXAMPLE 3: Protein Purification. TriA and variants thereof were produced in E. coli BL21(DE3) Gold (Agilent Technologies, Germany). Therefore E. coli was transformed with appropriate pET24d N-HIS tag expression vector and chaperone plasmid pGro7 (chaperones groEL and groES). Bacterial strains were grown at 30° C. in 100 mL LB for 20 h and protein expression induced with 0.1 mM IPTG at 25° C. for 20 hs. Cells were harvested by centrifugation at 3000 rpm at 4° C. for 20 min, resuspended in Bug Buster protein extraction reagent (Novagen, Germany) according to manufactures instructions. Lysates were clarified by centrifugation. Samples of bovine serum albumin ([…]) were loaded onto each gel analyzed by densitometry to provide an internal standard. Protein determinations were verified using Coomassie protein assay dye, according to manufactures instruction (Thermo Scientific; USA). The HIS-tagged enzymes were purified by metal ion affinity chromatography using Ni-IDA 1000 kit (Macherey-Nagel, Germany) following manufactures instructions. Protein purity was accessed by SDS-PAGE using NuPAGE Novex 4-12% Bis-Tris pre-cast gels (Life Technologies; USA) stained with Coomassie Brilliant Blue (Serva, Germany). Protein concentrations were estimated by measuring absorbance at 280 nm using Lambda Bio+(Perkin Elmer, USA). EXAMPLE 4: Enzyme kinetics. Resting cell suspension containing triA gene were incubated with various azines, melamine and atrazine and the culture filtrate was analyzed by UPLC-HR-MS. Substrates were obtained either from Sigma-Aldrich or synthesized internally. Synthetic standards and enzyme reaction products were analysed by UPLC-HR-MS (Thermo/Dionex UPLC UltiMate3000 coupled to a QExactive high resolution mass spectrometer). A Waters Acquity HSS T3 column (2.1 mm; 100 mm; […]) was used with a mobile phase water/acetonitrile (0.1% formic acid) with a flow rate of […]. Enzymes were used solved 25 mM sodium phosphate buffer (pH 7.2) with substrate concentration in the range of 1 nM to 10 nM at 30° C. Over time, the original azine peak disappeared whereas the formed OH-Metabolite (reaction product) increased. The product was identified by determination of the exact formula and by analysis of the accurate MS-MS fragments. Moreover for some of the formed products authentic standards were co-eluted. Degradation in % was calculated against the cells harboring the empty vector as control.
Molecule,"Degradation in % of 6-cyclopentyl-N4-(2,3,4,5,6-pentafluorophenyl)-1,3,5-triazine-2,4-diamine",Degradation in % of Melamine
B1,1%,8%
B2,99%,87%
B3,0%,10%
B4,0%,43%
B5,0%,0%
B6,0%,0%
B7,100%,78%
B8,0%,2%
B9,64%,40%
B10,61%,0%
B11,0%,0%
B12,98%,0%
B13,100%,99%
B14,2%,0%
B15,0%,1%
B16,3%,0%
B17,0%,3%

# — US11499162B2, “Plants having increased tolerance to herbicides” (BASF SE, priority 2016, dated 2022)
